The assay deals with small GTPase Rac1 (UniProt P63000 1-189). Put plainly: immunoprecipitation with Tiam-1 antiserum from MCF-7 line lysates, blot with anti-Rac1. Here is the method: In brief, 70% confluent cultures of 25 mL flask were detached, pelleted and following 2 times washing with PBS. The pellet were lysed in RIPA buffer then centrifuged and the supernatant was pre-cleared by addition of 5 μL of protein A/G-sepharose beads slurry (Pierce) for 2 hours, then the supernatant was incubated with the antibody of interest for 24 hours. 10 μL of protein A/G slurry was added for 2 hours, collected by pulse centrifugation, washed 3 times with lysis buffer, resuspended in 2×SDS loading buffer subjected to SDS-PAGE, followed by immunoblotting with the appropriate antibodies.

B1: Tiam-1, Rac1-specific guanine nucleotide exchange factor (RacGEF) (enzyme)
chain: GNAESQHVEHEFYGEKHASLGRKHTSRSLRLSHKTRRTRHASSGKVIHRNSEVSTRSSSTPSIPQSLAENGLEPFSQDGTLEDFGSPIWVDRVDMGLRPVSYTDSSVTPSVDSSIVLTAASVQSMPDTEESRLYGDDATYLAEGGRRQHSYTSNGPTFMETASFKKKRSKSADIWREDSLEFSLSDLSQEHLTSNEEILGSAEEKDCEEARGMETRASPRQLSTCQRANSLGDLYAQKNSGVTANGGPGSKFAGYCRNLVSDIPNLANHKMPPAAAEETPPYSNYNTLPCRKSHCLSEGATNPQISHSNSMQGRRAKTTQDVNAGEGSEFADSGIEGATTDTDLLSRRSNATNSSYSPTTGRAFVGSDSGSSSTGDAARQGVYENFRRELEMSTTNSESLEEAGSAHSDEQSSGTLSSPGQSDILLTAAQGTVRKAGALAVKNFLVHKKNKKVESATRRKWKHYWVSLKGCTLFFYESDGRSGIDHNSIPKHAVWVENSIVQAVPEHPKKDFVFCLSNSLGDAFLFQTTSQTELENWITAIHSACATAVARHHHKEDTLRLLKSEIKKLEQKIDMDEKMKKMGEMQLSSVTDSKKKKTILDQIFVWEQNLEQFQMDLFRFRCYLASLQGGELPNPKRLLAFASRPTKVAMGRLGIFSVSSFHALVAARTGETGVRRRTQAMSRSASKRRSRFSSLWGLDTTSKKKQGRPSINQVFGEGTEAVKKSLEGIFDDIVPDGKREKEVVLPNVHQHNPDCDIWVHEYFTPSWFCLPNNQPALTVVRPGDTARDTLELICKTHQLDHSAHYLRLKFLIENKMQLYVPQPEEDIYELLYKEIEICPKVTQSIHIEKSDTAADTYGFSLSSVEEDGIRRLYVNSVKETGLASKKGLKAGDEILEINNRAADALNSSMLKDFLSQPSLGLLVRTYPELEEGVELLESPPHRVDGPADLGESPLAFLTSNPGHSLCSEQGSSAETAPEETEGPDLESSDETDHSSKSTEQVAAFCRSLHEMNPSDQSPSPQDSTGPQLATMRQLSDADKLRKVICELLETERTYVKDLNCLMERYLKPLQKETFLTQDELDVLFGNLTEMVEFQVEFLKTLEDGVRLVPDLEKLEKVDQFKKVLFSLGGSFLYYADRFKLYSAFCASHTKVPKVLVKAKTDTAFKAFLDAQNPKQQHSSTLESYLIKPIQRILKYPLLLRELFALTDAESEEHYHLDVAIKTMNKVASHINEMQKIHEEFGAVFDQLIAEQTGEKKEVADLSMGDLLLHTTVIWLNPPASLGKWKKEPELAAFVFKTAVVLVYKDGSKQKKKLVGSHRLSIYEDWDPFRFRHMIPTEALQVRALASADAEANAVCEIVHVKSESEGRPERVFHLCCSSPESRKDFLKAVHSILRDKHRRQLLKTESLPSSQQYVPFGGKRLCALKGARPAMSRAVSAPSKSLGRRRRRLARNRFTIDSDAVSASSPEKESQQPPGGGDTDRWVEEQFDLAQYEEQDDIKETDILSDDDEFCESVKGASVDRDLQERLQATSISQRERGRKTLDSHASRMAQLKKQAALSGINGGLESASEEVIWVRREDFAPSRKLNTEI
notes: Endogenous protein in MCF-7 cell lysate
On to B1, for which the binding result is given as “binds”.

These data come from patent US20110124572A1 (published 2011).
